Results on one molecule are retold here after PMC6379078 (Cell, 2018).

In this test the target is T1, wheat germ cell extract in vitro translated HA-GLI1 (human, UniProt P08151 1-1106).
T1 sequence (looked up): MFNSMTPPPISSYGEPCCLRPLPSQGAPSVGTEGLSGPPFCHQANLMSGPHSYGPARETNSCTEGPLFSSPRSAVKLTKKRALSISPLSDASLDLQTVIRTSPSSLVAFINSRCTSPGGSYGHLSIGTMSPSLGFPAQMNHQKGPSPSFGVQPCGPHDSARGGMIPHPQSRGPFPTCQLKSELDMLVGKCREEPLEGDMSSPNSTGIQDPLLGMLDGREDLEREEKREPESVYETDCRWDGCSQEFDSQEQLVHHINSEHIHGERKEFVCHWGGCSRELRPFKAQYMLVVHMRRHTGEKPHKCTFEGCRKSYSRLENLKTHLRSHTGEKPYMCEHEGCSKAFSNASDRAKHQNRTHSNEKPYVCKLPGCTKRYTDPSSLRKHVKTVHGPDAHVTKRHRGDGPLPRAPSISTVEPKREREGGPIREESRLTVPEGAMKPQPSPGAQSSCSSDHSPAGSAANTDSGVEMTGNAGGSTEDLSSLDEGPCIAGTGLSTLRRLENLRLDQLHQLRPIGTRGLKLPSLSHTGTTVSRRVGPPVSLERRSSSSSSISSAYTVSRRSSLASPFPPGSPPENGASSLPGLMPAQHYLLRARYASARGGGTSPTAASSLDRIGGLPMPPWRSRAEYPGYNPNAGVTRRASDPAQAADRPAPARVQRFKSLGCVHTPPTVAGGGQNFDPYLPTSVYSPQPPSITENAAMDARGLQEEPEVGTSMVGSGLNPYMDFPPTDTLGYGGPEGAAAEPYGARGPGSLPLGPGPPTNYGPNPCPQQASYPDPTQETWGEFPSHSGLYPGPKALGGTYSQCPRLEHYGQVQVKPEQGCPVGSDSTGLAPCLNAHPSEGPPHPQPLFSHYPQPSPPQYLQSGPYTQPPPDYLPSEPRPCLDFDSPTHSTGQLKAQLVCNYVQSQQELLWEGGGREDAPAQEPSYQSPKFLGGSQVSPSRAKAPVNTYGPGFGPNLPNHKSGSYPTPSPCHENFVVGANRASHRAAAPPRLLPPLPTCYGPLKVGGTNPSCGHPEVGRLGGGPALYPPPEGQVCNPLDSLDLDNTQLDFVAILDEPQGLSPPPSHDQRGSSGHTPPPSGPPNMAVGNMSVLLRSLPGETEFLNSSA
The test is described as follows: co-IP.

Ends that are not written are not given here. * marks the point of attachment. Biotin = O=C1N[C@H]2[C@H](CS[C@H]2CCCCC(=O)*)N1

Broadly, the Kd is the free concentration of one partner at which half of the binding sites on the other are occupied at equilibrium, for simple one-to-one binding. The low end stands for tighter binding, the high end for weaker binding. Molecule Biotin-LEDPSVLTKDKLKSELVANNVTLPAGEQRKDVYVQLYLQHLTAR (peptide, UniProt P42166 5-48, looked up) [biotin-LEM-like domain peptide (residues 5–48)] displayed a Kd of 8 µM.
